Test results reported in article PMC8642242.

Molecular target: SARS-CoV-2 stabilized S trimer (HexaPro) (SARS-CoV-2)
Assay: negative-stain EM

Substance: SARS-CoV-2 stabilized S trimer (HexaPro) (domain or fragment)
- stoichiometry N: 3
